From paper PMC12620021 (Nucleic Acids Research, 2025)

Columns and labels:
[1] = target: T1, RelE1 toxin of Mycobacterium tuberculosis (crystallization construct, expressed as His-SUMO–RelE1) (Mycobacterium tuberculosis, UniProt O50461 1-97); experiment: crystal structure; conditions: both partners purified
T1 sequence: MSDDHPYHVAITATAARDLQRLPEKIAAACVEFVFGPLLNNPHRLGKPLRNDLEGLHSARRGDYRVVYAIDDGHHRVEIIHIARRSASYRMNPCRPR

[2] = target: the molecule itself; experiment: crystal structure

B1: RelB1 antitoxin of Mycobacterium tuberculosis (crystallization construct) (natural protein)
chain: MAVVPLGEVRNRLSEYVAEVELTHERITITRHGHPAAVLISADDLASIEETLEVLRTPGASEAIREGLADVAAGRFVSNDEIRNRYTAR
B1: binds [1]; binds [2].
